From the supplement of paper PMC5998384 come the findings set out here.

In data set [1] the test system is HeLa Kyoto. Put plainly: solubility in G1/S (NP-40 vs SDS abundance) (log2 ratio); higher = more soluble. To be noted: cell cycle stage: G1/S.
Data set [2] has as its system HeLa Kyoto. As to the kind of experiment: melting temperature (median over replicates), in situ; higher = more thermally stable.
The test system of data set [3] is HeLa Kyoto. Put plainly: thermal stability score vs G1/S (z-score of summed log2 fold changes over temperatures); higher = more thermally stable than in G1/S.
The subject of data set [4] is HeLa Kyoto. As to the kind of experiment: solubility change mitosis vs G1/S (difference of NP-40 vs SDS log2 ratios) (log2 ratio difference); higher = more soluble in mitosis.
[5] abbreviates: cell cycle stage: early G1 (4.5 h after nocodazole release).
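For melting temperature (median over replicates), in situ in this document: HeLa Kyoto cells synchronized by double thymidine or nocodazole block, proteins quantified by TMT10plex mass spectrometry, three independent biological replicates.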
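For solubility change mitosis vs G1/S (difference of NP-40 vs SDS log2 ratios) in this document: synchronized HeLa Kyoto cells (double thymidine block for G1/S, nocodazole release for mitosis), protein amounts in NP-40 versus SDS lysates quantified by mass spectrometry, three biological replicates.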
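For solubility in G1/S (NP-40 vs SDS abundance) in this document: HeLa Kyoto cells arrested at G1/S by double thymidine block, proteins quantified by TMT10plex mass spectrometry in mild NP-40 versus SDS extracts, three biological replicates.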
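For thermal stability score vs G1/S (z-score of summed log2 fold changes over temperatures) in this document: synchronized HeLa Kyoto cells, proteins quantified by TMT10plex mass spectrometry, three biological replicates, mitosis taken 0.5 h after nocodazole release, G1/S directly after double thymidine block.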

Turning to “MAAGTSSYWEDLRKQARQLENELDLKLVSFSKLCTSYSHSSTRDGRRDRYSSDTTPLLNGSSQDRMFETMAIEIEQLLARLTGVNDKMAEYTNSAGVPSLNAALMHTLQRHRDILQDYTHEFHKTKANFMAIRERENLMGSVRKDIESYKSGSGVNNRRTELFLKEHDHLRNSDRLIEETISIAMATKENMTSQRGMLKSIHSKMNTLANRFPAVNSLIQRINLRKRRDSLILGGVIGICTILLLLYAFH [GOSR1]”, the “solubility in G1/S (log2)” value with HeLa Kyoto [1] is 0.28. For the same sequence, the melting temperature was found to be 54.7 °C in the data set on HeLa Kyoto [2] (cell cycle stage: G1/S) and 52 °C with HeLa Kyoto [2] (cell cycle stage: mitosis). Besides, the thermal stability score was -0.21 in the data set on HeLa Kyoto [3] (setting [5]) and -0.667 with HeLa Kyoto [3] (cell cycle stage: mitosis). The “solubility change mitosis (log2)” value with HeLa Kyoto [4] is 0.02.

Take “MAAGVDCGDGVGARQHVFLVSEYLKDASKKMKNGLMFVKLVNPCSGEGAIYLFNMCLQQLFEVKVFKEKHHSWFINQSVQSGGLLHFATPVDPLFLLLHYLIKADKEGKFQPLDQVVVDNVFPNCILLLKLPGLEKLLHHVTEEKGNPEIDNKKYYKYSKEKTLKWLEKKVNQTVAALKTNNVNVSSRVQSTAFFSGDQASTDKEEDYIRYAHGLISDYIPKELSDDLSKYLKLPEPSASLPNPPSKKIKLSDEPVEAKEDYTKFNTKDLKTEKKNSKMTAAQKALAKVDKSGMKSIDTFFGVKNKKKIGKV [RNASEH2B]”: the “solubility in G1/S (log2)” value in the data set with HeLa Kyoto [1] came to 0.517. Further, the melting temperature with HeLa Kyoto [2] (cell cycle stage: G1/S) was 48.8 °C; with HeLa Kyoto [2] (cell cycle stage: mitosis), 49.7 °C. For the same sequence, the thermal stability score in the data set with HeLa Kyoto [3] (setting [5]) was -0.0838; in the data set with HeLa Kyoto [3] (cell cycle stage: mitosis), 0.982. The “solubility change mitosis (log2)” value in the data set on HeLa Kyoto [4] was -0.0965.

For the sequence “MAAIPPDSWQPPNVYLETSMGIIVLELYWKHAPKTCKNFAELARRGYYNGTKFHRIIKDFMIQGGDPTGTGRGGASIYGKQFEDELHPDLKFTGAGILAMANAGPDTNGSQFFVTLAPTQWLDGKHTIFGRVCQGIGMVNRVGMVETNSQDRPVDDVKIIKAYPSG [PPIL1]”, in the data set on HeLa Kyoto [1], the “solubility in G1/S (log2)” value stood at 0.351. The melting temperature in the data set with HeLa Kyoto [2] (cell cycle stage: G1/S) stood at 49.1 °C; in the data set on HeLa Kyoto [2] (cell cycle stage: mitosis), 50.1 °C. For the same sequence, the thermal stability score is -0.554 in the data set on HeLa Kyoto [3] (setting [5]) and -0.941 in the data set with HeLa Kyoto [3] (cell cycle stage: mitosis). Moreover, the “solubility change mitosis (log2)” value with HeLa Kyoto [4] was found to be 0.414.

For the sequence “MAAIRMGKLTTMPAGLIYASVSVHAAKQEESKKQLVKPEQLPIYTAPPLQSKYVEEQPGHLQMGFASIRTATGCYIGWCKGVYVFVKNGIMDTVQFGKDAYVYLKNPPRDFLPKMGVITVSGLAGLVSARKGSKFKKITYPLGLATLGATVCYPVQSVIIAKVTAKKVYATSQQIFGAVKSLWTKSSKEESLPKPKEKTKLGSSSEIEVPAKTTHVLKHSVPLPTELSSEAKTKSESTSGATQFMPDPKLMDHGQSHPEDIDMYSTRS [APOOL]”, the “solubility in G1/S (log2)” value with HeLa Kyoto [1] worked out at 0.166. Moreover, the melting temperature in the data set with HeLa Kyoto [2] (cell cycle stage: G1/S) was determined as 53.9 °C; in the data set with HeLa Kyoto [2] (cell cycle stage: mitosis), 57.3 °C. Also, the results for the thermal stability score in the data set with HeLa Kyoto [3] (setting [5]) and with HeLa Kyoto [3] (cell cycle stage: mitosis) were -1.29 and -2.35, respectively. In addition, in the data set with HeLa Kyoto [4], the “solubility change mitosis (log2)” value was -0.104.

On to “MAAKSQPNIPKAKSLDGVTNDRTASQGQWGRAWEVDWFSLASVIFLLLFAPFIVYYFIMACDQYSCALTGPVVDIVTGHARLSDIWAKTPPITRKAAQLYTLWVTFQVLLYTSLPDFCHKFLPGYVGGIQEGAVTPAGVVNKYQINGLQAWLLTHLLWFANAHLLSWFSPTIIFDNWIPLLWCANILGYAVSTFAMVKGYFFPTSARDCKFTGNFFYNYMMGIEFNPRIGKWFDFKLFFNGRPGIVAWTLINLSFAAKQRELHSHVTNAMVLVNVLQAIYVIDFFWNETWYLKTIDICHDHFGWYLGWGDCVWLPYLYTLQGLYLVYHPVQLSTPHAVGVLLLGLVGYYIFRVANHQKDLFRRTDGRCLIWGRKPKVIECSYTSADGQRHHSKLLVSGFWGVARHFNYVGDLMGSLAYCLACGGGHLLPYFYIIYMAILLTHRCLRDEHRCASKYGRDWERYTAAVPYRLLPGIF [DHCR7]”, for which the “solubility in G1/S (log2)” value with HeLa Kyoto [1] is -0.604. For the same sequence, the melting temperature in the data set with HeLa Kyoto [2] (cell cycle stage: G1/S) came out at 51 °C; in the data set with HeLa Kyoto [2] (cell cycle stage: mitosis) it was 50.7 °C. Besides, the figures for the thermal stability score with HeLa Kyoto [3] (setting [5]) and in the data set with HeLa Kyoto [3] (cell cycle stage: mitosis) were 0.148 and -0.18, respectively. For the same sequence, in the data set with HeLa Kyoto [4], the “solubility change mitosis (log2)” value was -0.0769.

Regarding “MAALGVAEAVAAPHPAEGAETAEAVELSRALSRLLPGLEADSKPGRRRALEALRRALEEPGPAADPTAFQGPWARLLLPRLLRCLSDPAEGCRALAVHLLDLGLRRAARPRDALPRLLPALAARLAGPVPARRPPEACEELRLALVQLLGLAVDLCGAALAPHLDDALRALRCSLLDPFAAVRRESCSCAAALAQATPDHFHMQSESLIGPLMQTISHQHWKVRVAAIEATGAVIHFGNGKSVDDVLSHFAQRLFDDVPQVRRAVASVVGGWLLCLRDRYSFFHKLIPLLLSSLNDEVPEVRQLAASLWEDVGLQWQKENEEDLKDKLDFAPPTPPHYPPHERRPVLGCRELVFRNLSKILPALCHDITDWVVGTRVKSAQLLPVLLLHAEDHATQHLEVVLRTLFQACTDEEAAVVQSCTRSAELVGTFVSPEVFLKLILSTLKKTPSASGLLVLASAMRGCPREALQPHLAAIATELAQAHICQASENDLYLERLLLCVQALVSVCHEDCGVASLQLLDVLLTIVALAGATGLRDKAQETMDSLAMVEGVSSCQDLYRKHIGPLLERVTASHLDWTAHSPELLQFSVIVAQSGPALGEALPHVVPTLRACLQPSQDPQMRLKLFSILSTVLLRATDTINSQGQFPSYLETVTKDILAPNLQWHAGRTAAAIRTAAVSCLWALTSSEVLSAEQIRDVQETLMPQVLTTLEEDSKMTRLISCRIINTFLKTSGGMTDPEKLIRIYPELLKRLDDVSNDVRMAAASTLVTWLQCVKGANAKSYYQSSVQYLYRELLVHLDDPERAIQDAILEVLKEGSGLFPDLLVRETEAVIHKHRSATYCEQLLQHVQAVPATQ [DNAAF5]”, the “solubility in G1/S (log2)” value in the data set with HeLa Kyoto [1] is 0.0447. Also, the melting temperature was 48.1 °C in the data set on HeLa Kyoto [2] (cell cycle stage: G1/S) and 48 °C in the data set with HeLa Kyoto [2] (cell cycle stage: mitosis). Besides, the thermal stability score in the data set with HeLa Kyoto [3] (setting [5]) stood at 0.695; with HeLa Kyoto [3] (cell cycle stage: mitosis) it was 2.82. Also, in the data set with HeLa Kyoto [4], the “solubility change mitosis (log2)” value is -0.172.

For “MAALMTPGTGAPPAPGDFSGEGSQGLPDPSPEPKQLPELIRMKRDGGRLSEADIRGFVAAVVNGSAQGAQIGAMLMAIRLRGMDLEETSVLTQALAQSGQQLEWPEAWRQQLVDKHSTGGVGDKVSLVLAPALAACGCKVPMISGRGLGHTGGTLDKLESIPGFNVIQSPEQMQVLLDQAGCCIVGQSEQLVPADGILYAARDVTATVDSLPLITASILSKKLVEGLSALVVDVKFGGAAVFPNQEQARELAKTLVGVGASLGLRVAAALTAMDKPLGRCVGHALEVEEALLCMDGAGPPDLRDLVTTLGGALLWLSGHAGTQAQGAARVAAALDDGSALGRFERMLAAQGVDPGLARALCSGSPAERRQLLPRAREQEELLAPADGTVELVRALPLALVLHELGAGRSRAGEPLRLGVGAELLVDVGQRLRRGTPWLRVHRDGPALSGPQSRALQEALVLSDRAPFAAPSPFAELVLPPQQ [TYMP]”, the “solubility in G1/S (log2)” value in the data set with HeLa Kyoto [1] worked out at 0.479. Also, the melting temperature in the data set with HeLa Kyoto [2] (cell cycle stage: G1/S) stood at 55.7 °C; with HeLa Kyoto [2] (cell cycle stage: mitosis) it was 57.5 °C. The thermal stability score is -1.38 in the data set with HeLa Kyoto [3] (setting [5]) and -0.967 in the data set with HeLa Kyoto [3] (cell cycle stage: mitosis). Also, in the data set on HeLa Kyoto [4], the “solubility change mitosis (log2)” value was -0.0175.

Regarding “MAALTTLFKYIDENQDRYIKKLAKWVAIQSVSAWPEKRGEIRRMMEVAAADVKQLGGSVELVDIGKQKLPDGSEIPLPPILLGRLGSDPQKKTVCIYGHLDVQPAALEDGWDSEPFTLVERDGKLYGRGSTDDKGPVAGWINALEAYQKTGQEIPVNVRFCLEGMEESGSEGLDELIFARKDTFFKDVDYVCISDNYWLGKKKPCITYGLRGICYFFIEVECSNKDLHSGVYGGSVHEAMTDLILLMGSLVDKRGNILIPGINEAVAAVTEEEHKLYDDIDFDIEEFAKDVGAQILLHSHKKDILMHRWRYPSLSLHGIEGAFSGSGAKTVIPRKVVGKFSIRLVPNMTPEVVGEQVTSYLTKKFAELRSPNEFKVYMGHGGKPWVSDFSHPHYLAGRRAMKTVFGVEPDLTREGGSIPVTLTFQEATGKNVMLLPVGSADDGAHSQNEKLNRYNYIEGTKMLAAYLYEVSQLKD [CNDP2]”, the “solubility in G1/S (log2)” value in the data set on HeLa Kyoto [1] turned out to be 0.253. Also, the figures for the melting temperature with HeLa Kyoto [2] (cell cycle stage: G1/S) and in the data set with HeLa Kyoto [2] (cell cycle stage: mitosis) were 54.4 °C and 53.4 °C, respectively. Also, the values for the thermal stability score in the data set with HeLa Kyoto [3] (setting [5]) and with HeLa Kyoto [3] (cell cycle stage: mitosis) were -6.23 and -11.6, respectively. Moreover, in the data set with HeLa Kyoto [4], the “solubility change mitosis (log2)” value was -0.148.

For “MAALYRPGLRLNWHGLSPLGWPSCRSIQTLRVLSGDLGQLPTGIRDFVEHSARLCQPEGIHICDGTEAENTATLTLLEQQGLIRKLPKYNNCWLARTDPKDVARVESKTVIVTPSQRDTVPLPPGGARGQLGNWMSPADFQRAVDERFPGCMQGRTMYVLPFSMGPVGSPLSRIGVQLTDSAYVVASMRIMTRLGTPVLQALGDGDFVKCLHSVGQPLTGQGEPVSQWPCNPEKTLIGHVPDQREIISFGSGYGGNSLLGKKCFALRIASRLARDEGWLAEHMLILGITSPAGKKRYVAAAFPSACGKTNLAMMRPALPGWKVECVGDDIAWMRFDSEGRLRAINPENGFFGVAPGTSATTNPNAMATIQSNTIFTNVAETSDGGVYWEGIDQPLPPGVTVTSWLGKPWKPGDKEPCAHPNSRFCAPARQCPIMDPAWEAPEGVPIDAIIFGGRRPKGVPLVYEAFNWRHGVFVGSAMRSESTAAAEHKGKIIMHDPFAMRPFFGYNFGHYLEHWLSMEGRKGAQLPRIFHVNWFRRDEAGHFLWPGFGENARVLDWICRRLEGEDSARETPIGLVPKEGALDLSGLRAIDTTQLFSLPKDFWEQEVRDIRSYLTEQVNQDLPKEVLAELEALERRVHKM [PCK2]”, the “solubility in G1/S (log2)” value in the data set with HeLa Kyoto [1] was 0.00231. Moreover, the melting temperature in the data set on HeLa Kyoto [2] (cell cycle stage: G1/S) came out at 52.8 °C; in the data set with HeLa Kyoto [2] (cell cycle stage: mitosis) it was 52.1 °C. Further, the thermal stability score in the data set on HeLa Kyoto [3] (setting [5]) was -2.32; in the data set with HeLa Kyoto [3] (cell cycle stage: mitosis), -1.91. In addition, in the data set with HeLa Kyoto [4], the “solubility change mitosis (log2)” value was -0.0852.
